Drawing on PMC10244618, this text covers enrichment for 46 variants.

B1: NF2 (merlin) isoform 7, human, full length (507 aa, lacks exons 2-3 = isoform-1 residues 39-121; exon-16 C-terminus), P35240-4 (parent)
chain: MAGAIASRMSFSSLKRKQPKTFTVRIVTMDAEMEFNCEVKKQILDEKIYCPPEASVLLASYAVQAKYGDYDPSVHKRGFLAQEELLPKRVINLYQMTPEMWEERITAWYAEHRGRARDEAEMEYLKIAQDLEMYGVNYFAIRNKKGTELLLGVDALGLHIYDPENRLTPKISFPWNEIRNISYSDKEFTIKPLDKKIDVFKFNSSKLRVNKLILQLCIGNHDLFMRRRKADSLEVQQMKAQAREEKARKQMERQRLAREKQMREEAERTRDELERRLLQMKEEATMANEALMRSEETADLLAEKAQITEEEAKLLAQKAAEAEQEMQRIKATAIRTEEEKRLMEQKVLEAEVLALKMAEESERRAKEADQLKQDLQEAREAERRAKQKLLEIATKPTYPPMNPIPAPLPPDIPSFNLIGDSLSFDFKDTDMKRLSMEIEKEKVEYMEKSKHLQEQLNELKTEIEALKLKERETALDILHNENSDRGGSSKHNTIKKPQAQGRRPICI

Variants of B1 are the subject of this test. The experiment in a line: reverse yeast two-hybrid deep mutational scan (rY2H-seq): NF2 isoform 7 mutant library as bait mated with wild-type prey strains; selection on medium lacking adenine for non-interacting pairs; NextSeq paired-end sequencing; enrichment vs …. The following applies: yeast diploids after mating (RBait_S3 x RPrey_S3), 30 °C, selection for reporter genes on NB agar, HIGHER = WEAKER BINDING (the opposite of display enrichments): higher = stronger loss of interaction: reverse Y2H selects yeast in which bait and prey do NOT interact (growth without adenine), so a …, hits-only table, scale: rY2H score, numbering: uniprot, sequence starts at 1. (In a reporter assay the amount or activity of a reporter protein is the signal.)

[1] abbreviates: with EMILIN1 (elastin microfibril interfacer 1), Q9Y6C2, human ABL2 co-expressed as the kinase-dead K35M mutant ….
Setting [2] is: with KDM1A (lysine-specific histone demethylase 1A; the table's label AOF2 is a gene synonym of KDM1A), O60341, human tyrosine kinase ABL2 co-expressed as the active kinase ….
The mark [3] stands for this setting: with EMILIN1 (elastin microfibril interfacer 1), Q9Y6C2, human tyrosine kinase ABL2 co-expressed as the active kinase ….
The mark [4] stands for this setting: with PIK3R3 (phosphatidylinositol 3-kinase regulatory subunit gamma), Q92569, human tyrosine kinase ABL2 co-expressed as the active kinase ….
Setting [5] is: with KDM1A (lysine-specific histone demethylase 1A; the table's label AOF2 is a gene synonym of KDM1A), O60341, human ABL2 co-expressed as the kinase-dead K35M mutant ….
Setting [6] is: with NF2 C-terminal domain (wild type; homomeric NF2-NF2 interaction), P35240, human ABL2 co-expressed as the kinase-dead K35M mutant …, partner unresolved.

Values joined by “and” are separate entries in the source; they are usually repeats but may differ in a detail not shown here. Equal entries are not always repeated.

Consider A240S, for which the enrichment was 2.4 under setting [1] and 1.71 under setting [2].

As to Q387L, the enrichment reads like this: under setting [1], 1.46; under setting [3], 1.83; under setting [2], 2.07; under setting [4], 5.44.

Consider G135E, for which the enrichment by setting is: under setting [1], 2.42; under setting [5], 2.61.

Regarding G146L, the enrichment was determined as 2.08 under setting [1] and 6.29 under setting [3].

K313A: the enrichment is, setting by setting: under setting [1], 2.05; under setting [5], 1.63; under setting [2], 3.82; under setting [4], 3.82.

For the variant D420A, the enrichment is, setting by setting: under setting [1], 2.04; under setting [6], 2.35.

Turning to R341L, the enrichment under setting [1] is 2.12 and 2.16; the enrichment under setting [5] is 4.47 and 2.73; the enrichment under setting [6] came to 1.59.

Take R341K: the enrichment was determined as 2.64 under setting [1], 3.2 under setting [3] and 7.07 under setting [5].

As to R335A, the enrichment runs as follows: under setting [1], 35.1; under setting [3], 43.3; under setting [5], 67.9 and 31.8.

As to F415K, the enrichment by setting is: under setting [1], 2.05; under setting [5], 1.8 and 3.49; under setting [4], 2.73.

As to T394L, the enrichment worked out at 5.41 under setting [1], 13.8 under setting [5], 9 under setting [6] and 9.86 under setting [4].

Consider R226G, for which the enrichment under setting [1] was 1.63.

Turning to K66E, the enrichment was 2.7 under setting [1], 3.77 under setting [2] and 4.55 under setting [4].

With E265K, under setting [1], the enrichment came to 4.95.

With A320L, the enrichment is, setting by setting: under setting [1], 2.52; under setting [3], 3.39; under setting [5], 4.56 and 4.18.

For the variant E259T, the enrichment was 17.4 and 9.29 under setting [1]; 19.6 under setting [3]; 38.4 under setting [5]; 4.23 under setting [6].

As for K366A, under setting [1], the enrichment came to 3.27.

In the case of P410L, the enrichment was 3.26 and 3.02 under setting [1]; 5.11 and 2.8 under setting [3]; 5.35 and 7.09 under setting [5]; 6.37 and 2.41 under setting [2]; 2.14 and 2.85 under setting [6]; 2.56 under setting [4].

On to D162K, for which the enrichment under setting [1] was found to be 1.74.

On to A365E, for which the enrichment is 2.64 under setting [1]; 4.87 under setting [3]; 11.9 and 4.42 under setting [5]; 4.53 under setting [6].

For T97I, the enrichment stood at 1.62 under setting [1] and 1.95 under setting [2].

On to E360K, for which the enrichment under setting [1] came out at 3.02.

For the variant E303V, under setting [1], the enrichment was 5.6 and 16.3.

For the variant L214E, the enrichment reads like this: under setting [1], 8.22; under setting [3], 5.18 and 15.2; under setting [5], 13.4; under setting [6], 2.48; under setting [4], 30.

Consider V56C, for which the enrichment is, setting by setting: under setting [1], 2.08; under setting [3], 3.78 and 9.66; under setting [5], 7.69 and 9.8; under setting [2], 6.5; under setting [6], 3.78; under setting [4], 11.6 and 11.3.

For K330E, the enrichment was 2.8 and 1.9 under setting [1]; 1.83 under setting [3]; 4.14 and 1.58 under setting [5].

E267A: under setting [1], the enrichment was 2.15.

On to L291P, for which the enrichment under setting [1] came out at 1.99.

In the case of E349T, the enrichment runs as follows: under setting [1], 2.72 and 2.96; under setting [3], 3.96 and 3.74; under setting [5], 3.54 and 3.02; under setting [2], 2.75.

Consider P87S, for which the enrichment reads like this: under setting [1], 1.62; under setting [3], 1.61; under setting [5], 2.56; under setting [2], 3.13; under setting [4], 2.86.

With Q64A, the enrichment by setting is: under setting [1], 2.42; under setting [4], 8.91 and 12.3.

Consider H479E, for which the enrichment under setting [1] is 3.67.

Consider Q324A, for which the enrichment is 1.9 under setting [1], 3.69 under setting [3] and 2.45 under setting [5].

Consider E339K, for which the enrichment under setting [1] was 4.07 and 1.56; the enrichment under setting [3] amounted to 3.86; the enrichment under setting [5] amounted to 2.92; the enrichment under setting [2] came out at 2.13; the enrichment under setting [6] is 1.45; the enrichment under setting [4] was 1.62.

As to I171K, the enrichment is, setting by setting: under setting [1], 2.56; under setting [3], 1.76; under setting [5], 4.6; under setting [2], 8.42; under setting [4], 6.85.

On to R104E, for which, under setting [1], the enrichment worked out at 3.93.

On to Y161W, for which the enrichment was 3.13 and 2.01 under setting [1]; 6.81 under setting [3]; 5.85 under setting [4].

For the variant Y161K, the enrichment under setting [1] was found to be 4.91, the enrichment under setting [5] amounted to 3.06, the enrichment under setting [2] was 8.45 and the enrichment under setting [4] was determined as 5.71.

Y161A: the enrichment is, setting by setting: under setting [1], 2.53; under setting [3], 2.63; under setting [2], 2.23; under setting [6], 2.34; under setting [4], 2.72.

M357K: under setting [1], the enrichment was 2.48.

With R379L, the enrichment under setting [1] is 2.11.

As for T28L, the enrichment under setting [1] was 5.37.

Take E344L: the enrichment was 4.18 and 2.17 under setting [1]; 2.34 and 1.8 under setting [3]; 2.31 under setting [2].

With E344K, the enrichment is, setting by setting: under setting [1], 1.78 and 4.12; under setting [3], 3.82 and 2.77; under setting [5], 1.57; under setting [4], 4.06.

Take D425A: under setting [1], the enrichment was found to be 2.63.

As to T473L, the enrichment under setting [1] came out at 4.41; the enrichment under setting [5] is 8.75; the enrichment under setting [6] was 3.74 and 2.38; the enrichment under setting [4] amounted to 4.41.
